Data published in paper PMC5939987.

How the values were obtained:
Experiment in all cases: SEC
[1] = biological target: recombinant motavizumab dimeric IgA2 (UniProt P01591)
[2] = biological target: recombinant motavizumab dimeric IgA1 (UniProt P01591)
[3] = biological target: recombinant palivizumab dimeric IgA2 (UniProt P01591)
[4] = biological target: recombinant palivizumab dimeric IgA1 (UniProt P01591)

Measured: sIgA formation

secretory component (domain or fragment)
100%: all assays above
